Assay results: patent US20100120685A1 (WASHINGTON UNIVERSITY, published 2010)
Blank lines part the entries; values can stand above or below the binder they belong to. No end group written: not given here.

Tests used:
[1] = target: LRP6 (as used in Example 11) (UniProt O75581 20-1613, limits assumed); assay: competition with 125I-DKK1 for LRP6
[2] = target: LRP5 (as used in Example 11) (UniProt O75197 32-1615, limits assumed); assay: competition with 125I-Mesd for LRP5
[3] = target: T1, HA-tagged LRP6 on LRP6-transduced HT1080 cells (UniProt O75581 20-1613, limits assumed); assay: 125I-Mesd (150-195) (5 nM) binding to LRP6-transduced HT1080 cells, 3 h at 4 C
T1 construct: whole, on cells; the only LRP6 cDNA named in the materials is human; also called mature LRP6 at the cell surface; cell surface LRP6; not shown: HA tag
T1 sequence (O75581 20-1613 limits assumed): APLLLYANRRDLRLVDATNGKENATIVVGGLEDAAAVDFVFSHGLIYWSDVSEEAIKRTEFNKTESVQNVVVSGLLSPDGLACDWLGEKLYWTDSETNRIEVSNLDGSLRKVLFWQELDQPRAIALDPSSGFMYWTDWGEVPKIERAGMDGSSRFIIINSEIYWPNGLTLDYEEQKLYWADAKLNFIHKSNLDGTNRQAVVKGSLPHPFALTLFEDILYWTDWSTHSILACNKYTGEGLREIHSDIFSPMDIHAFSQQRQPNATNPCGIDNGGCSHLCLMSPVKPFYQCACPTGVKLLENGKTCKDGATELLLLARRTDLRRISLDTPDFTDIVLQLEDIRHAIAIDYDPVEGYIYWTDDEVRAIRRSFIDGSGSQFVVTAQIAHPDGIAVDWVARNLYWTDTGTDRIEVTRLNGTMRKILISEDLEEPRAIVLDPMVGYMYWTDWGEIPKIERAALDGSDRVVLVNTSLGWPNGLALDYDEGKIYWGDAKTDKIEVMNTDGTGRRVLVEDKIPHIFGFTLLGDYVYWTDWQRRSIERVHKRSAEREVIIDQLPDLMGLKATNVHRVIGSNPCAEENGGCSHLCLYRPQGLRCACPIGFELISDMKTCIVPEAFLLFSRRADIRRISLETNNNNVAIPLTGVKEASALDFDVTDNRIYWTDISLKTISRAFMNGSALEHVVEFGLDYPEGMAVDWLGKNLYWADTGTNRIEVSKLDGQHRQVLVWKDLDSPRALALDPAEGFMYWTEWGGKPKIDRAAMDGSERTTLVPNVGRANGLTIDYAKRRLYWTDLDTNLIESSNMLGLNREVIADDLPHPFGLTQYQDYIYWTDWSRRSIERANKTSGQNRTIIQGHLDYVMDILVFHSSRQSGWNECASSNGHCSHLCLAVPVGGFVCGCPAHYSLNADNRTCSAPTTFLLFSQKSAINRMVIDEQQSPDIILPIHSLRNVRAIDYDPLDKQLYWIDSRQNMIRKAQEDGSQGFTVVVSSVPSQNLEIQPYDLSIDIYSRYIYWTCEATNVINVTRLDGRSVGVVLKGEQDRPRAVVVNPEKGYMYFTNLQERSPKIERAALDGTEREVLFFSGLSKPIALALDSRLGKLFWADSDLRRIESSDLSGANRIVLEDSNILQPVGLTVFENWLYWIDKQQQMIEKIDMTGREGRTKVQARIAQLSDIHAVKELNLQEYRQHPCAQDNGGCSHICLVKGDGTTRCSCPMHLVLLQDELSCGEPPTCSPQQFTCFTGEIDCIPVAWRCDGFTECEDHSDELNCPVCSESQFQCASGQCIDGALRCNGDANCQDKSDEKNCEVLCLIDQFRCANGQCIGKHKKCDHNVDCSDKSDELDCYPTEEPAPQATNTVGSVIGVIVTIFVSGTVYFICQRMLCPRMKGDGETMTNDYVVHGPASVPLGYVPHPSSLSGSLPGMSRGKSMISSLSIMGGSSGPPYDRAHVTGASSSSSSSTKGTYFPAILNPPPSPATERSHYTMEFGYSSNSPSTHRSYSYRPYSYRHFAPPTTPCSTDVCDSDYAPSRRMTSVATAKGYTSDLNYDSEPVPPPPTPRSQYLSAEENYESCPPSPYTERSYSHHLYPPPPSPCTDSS
Protocol: In this example, a truncated Mesd mutant containing the last 45 amino acids of C-terminal region was generated (FIG. 3A) and its binding affinity for LRP6 was then analyzed. […] (A) Binding analyses of ¹²⁵I-Mesd and its mutant Mesd (150-195) (5 nM) to LRP6-transduced HT1080 cells and control cells. (B) Binding analyses of ¹²⁵I-Mesd and its mutant Mesd (150-195) (5 nM) to LRP6-transduced HT1080 cells. Assays were carried out for 3 hours at 4° C. in the absence or presence of 500 nM Mesd or its mutant. Values are the means of triple determinations with the s.d. indicated by error bars.

[4] = target: T1, HA-tagged LRP6 on LRP6-transduced …; assay: 125I-Mesd saturation binding to LRP6-transduced HT1080 cells, 3 h at 4 C, Scatchard analysis
Protocol: To examine whether Mesd binds with high affinity to most members of the LDLR family at the cell surface, we performed cell surface ligand binding experiments with cells stably transduced with LRP6 cDNA. Human HT1080 cells, which express undetectable levels of LRP6, were transduced with a viral vector alone (pLNCX2) or with vector containing LRP6 cDNA (Li, Y., Oncogene 23: 9129-9135, 2004) and used for ¹²⁵I-Mesd binding (FIG. 1A). ¹²⁵I-Mesd (5 nM) reached maximal binding after 2 hours incubation at 4° C. with LRP6-expressing HT1080 cells (FIG. 1A). Inclusion of excess unlabeled Mesd (500 nM) completely eliminated this binding.
(A) Time course of ¹²⁵I-Mesd (5 nM) binding to LRP6-transduced HT1080 cells and the control cells. Assay was carried out for the indicated periods at 4° C. in the absence (total) or presence of 500 nM Mesd (non-specific). (B) Saturation binding of ¹²⁵I-Mesd to LRP6-transduced HT1080 cells and the control cells. Assay was carried out at indicated concentrations for 3 hours at 4° C. in the absence (total) or presence (non-specific) of 500 nM Mesd. (C) Scatchard plots of data in B. All values are the average of triple determinations with the s.d. indicated by error bars.

[5] = target: T1, HA-tagged LRP6 on LRP6-transduced …; assay: binding of truncated Mesd mutant to cell surface LRP6
[6] = target: T1, HA-tagged LRP6 on LRP6-transduced …; assay: conditioned medium on LRP6-transduced HT1080 cells, anti-Myc immunofluorescence
Protocol: To facilitate immunodetection, a c-Myc epitope was included at the C-terminus. The integrity of the subcloned DNA sequence was confirmed by DNA sequencing. Human DKK1-conditioned media were produced by transient transfection of HEK293 cells with pcDNADKK1-Myc in serum-free medium, and allowed to bind to LRP6-transduced HT1080 cells and control cells at room temperature for 60 minutes in the absence or presence of 1 μM Mesd. Cells were then fixed in 4% paraformaldehyde, labeled with anti-Myc monoclonal antibody and detected with Alexa-488 goat anti-mouse IgG. The immunofluorescence was detected by a laser-scanning confocal microscope (Olympus Fluoview 500).
RAP is a receptor antagonist for members of the LDLR family, and is able to inhibit the binding of most known ligands of the LDLR family members. DKK1 is an LRP6-specific ligand and antagonist. […] In these experiments, Serum-free conditioned medium was harvested from HEK293 cells transiently transfected with cDNA for human Myc-DKK1 and allowed to bind to LRP6-transduced HT1080 cells (B,C) and control cells (A) in the absence (A,B) or presence (C) of 1 μM Mesd. Cell-surface-bound Myc-tagged DKK proteins were fixed and detected by immunofluorescence staining with anti-Myc antibody. (D) DKK1 binding to cell surface LRP6 is inhibited by Mesd. […] (E) LRP6-mediated DKK1 degradation is inhibited by Mesd. […]

[7] = target: T1, HA-tagged LRP6 on LRP6-transduced …; assay: 125I-DKK1 (5 nM) binding to LRP6-transduced HT1080 cells, 3 h at 4 C
Protocol: RAP is a receptor antagonist for members of the LDLR family, and is able to inhibit the binding of most known ligands of the LDLR family members. DKK1 is an LRP6-specific ligand and antagonist. […] In these experiments, Serum-free conditioned medium was harvested from HEK293 cells transiently transfected with cDNA for human Myc-DKK1 and allowed to bind to LRP6-transduced HT1080 cells (B,C) and control cells (A) in the absence (A,B) or presence (C) of 1 μM Mesd. Cell-surface-bound Myc-tagged DKK proteins were fixed and detected by immunofluorescence staining with anti-Myc antibody. (D) DKK1 binding to cell surface LRP6 is inhibited by Mesd. […] (E) LRP6-mediated DKK1 degradation is inhibited by Mesd. LRP6-mediated […] (5 nM) degradation was carried out for 4 hours at 37° C. in the absence or presence of 500 nM RAP or 500 nM Mesd. Values are the means of triple determinations with the s.d. indicated by error bars. Bar, 10 μm. As expected, Myc-tagged DKK1 binds to LRP6 cells (FIG. 9B) but not to the control cells (FIG. 9A).

LRP5 (as used in Example 11), sequence (O75197 32-1615 limits assumed): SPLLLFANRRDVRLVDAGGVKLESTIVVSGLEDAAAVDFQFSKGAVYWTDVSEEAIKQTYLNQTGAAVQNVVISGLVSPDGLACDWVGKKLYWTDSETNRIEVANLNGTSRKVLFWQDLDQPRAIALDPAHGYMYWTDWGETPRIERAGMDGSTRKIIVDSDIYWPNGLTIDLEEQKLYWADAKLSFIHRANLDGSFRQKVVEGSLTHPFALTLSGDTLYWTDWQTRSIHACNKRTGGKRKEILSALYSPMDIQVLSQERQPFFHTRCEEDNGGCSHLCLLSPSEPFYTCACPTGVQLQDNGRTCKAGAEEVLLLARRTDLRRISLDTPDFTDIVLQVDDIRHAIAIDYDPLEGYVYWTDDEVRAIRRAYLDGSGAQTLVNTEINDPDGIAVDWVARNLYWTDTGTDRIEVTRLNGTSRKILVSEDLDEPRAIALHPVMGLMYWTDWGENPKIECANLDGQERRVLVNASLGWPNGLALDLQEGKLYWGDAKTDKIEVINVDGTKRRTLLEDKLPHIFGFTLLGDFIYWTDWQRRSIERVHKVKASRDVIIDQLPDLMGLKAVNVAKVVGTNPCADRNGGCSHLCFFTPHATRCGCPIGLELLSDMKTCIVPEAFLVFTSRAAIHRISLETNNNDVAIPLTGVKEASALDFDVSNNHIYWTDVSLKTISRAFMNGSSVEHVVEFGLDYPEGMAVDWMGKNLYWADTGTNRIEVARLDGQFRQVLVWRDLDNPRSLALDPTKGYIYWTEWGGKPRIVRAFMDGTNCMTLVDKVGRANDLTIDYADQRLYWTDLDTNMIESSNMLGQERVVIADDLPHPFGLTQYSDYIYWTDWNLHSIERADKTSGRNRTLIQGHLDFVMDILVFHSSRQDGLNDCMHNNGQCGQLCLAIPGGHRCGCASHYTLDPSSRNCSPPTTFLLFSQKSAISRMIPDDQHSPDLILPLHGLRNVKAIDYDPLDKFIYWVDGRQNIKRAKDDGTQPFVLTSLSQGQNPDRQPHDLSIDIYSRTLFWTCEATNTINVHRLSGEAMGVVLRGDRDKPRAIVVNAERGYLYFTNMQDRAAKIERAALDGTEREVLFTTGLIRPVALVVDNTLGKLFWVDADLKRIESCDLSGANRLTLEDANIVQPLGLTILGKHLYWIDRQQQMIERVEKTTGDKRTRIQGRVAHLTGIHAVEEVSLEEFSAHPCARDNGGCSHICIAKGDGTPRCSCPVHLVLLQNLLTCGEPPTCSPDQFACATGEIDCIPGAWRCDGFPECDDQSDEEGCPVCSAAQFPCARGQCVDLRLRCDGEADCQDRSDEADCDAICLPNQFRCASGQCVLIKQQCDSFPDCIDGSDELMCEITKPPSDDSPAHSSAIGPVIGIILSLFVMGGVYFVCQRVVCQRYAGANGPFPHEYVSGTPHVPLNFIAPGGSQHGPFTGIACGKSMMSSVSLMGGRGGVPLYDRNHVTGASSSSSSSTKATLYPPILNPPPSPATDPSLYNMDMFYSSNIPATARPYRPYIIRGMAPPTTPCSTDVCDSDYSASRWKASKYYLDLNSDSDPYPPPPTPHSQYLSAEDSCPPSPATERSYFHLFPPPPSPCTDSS
LRP6 (as used in Example 11), sequence (O75581 20-1613 limits assumed): as the sequence (O75581 20-1613 limits assumed) above

Binder: KGGGSKEKNKTKPEKAKKKEGDPKPRASKEDNRAGSR (also called the oligopeptide) [Mesd oligopeptide KGGGSKEKNKTKPEKAKKKEGDPKPRASKEDNRAGSR]
fold reduction of 125I-DKK1 binding [1]: > 2 fold
fold reduction of 125I-Mesd binding [2]: ~10 fold

B1: Mesd (150-195) (peptide)
chain: QMYPGKGGGSKEKNKTKPEKAKKKEGDPKPRASKEDNRAGSRREDL
modifications: also: 125I-labelled where used as tracer
notes: also called truncated Mesd mutant containing the last 45 amino acids of C-terminal region; Mesd (150-195) peptide; not shown: N-terminal polyhistidine tail from pET-30a(+) if made like the other recombinant Mesd mutants
binding result [3]: binds

B3: Mesd (12-195) (other)
chain: RKKKDIRDYNDADMARLLEQWEKDDDIEEGDLPEHKRPSAPIDFSKLDPGKPESILKMTKKGKTLMMFVTVSGNPTEKETEEITSLWQGSLFNANYDVQRFIVGSDRAIFMLRDGSYAWEIKDFLVSQDRCAEVTLEGQMYPGKGGGSKEKNKTKPEKAKKKEGDRKPRASKEDNRAGSRREDL
notes: also called truncated Mesd mutant lacking the N-terminal region; not shown: N-terminal polyhistidine tail from pET-30a(+)
binding result [5]: binds

B5: human Myc-tagged DKK1 (conditioned medium of HEK293 cells) (ligand, UniProt O94907 32-266, looked up, not shown: small tags and cut ends)
chain: TLNSVLNSNAIKNLPPPLGGAAGHPGSAVSAAPGILYPGGNKYQTIDNYQPYPCAEDEECGTDEYCASPTRGGDAGVQICLACRKRRKRCMRHAMCCPGNYCKNGICVSSDQNHFRGEIEETITESFGNDHSTLDGYSRRTTLSSKMYHTKGQEGSVCLRSSDCASGLCCARHFWSKICKPVLKEGQVCTKHRRKGSHGLEIFQRCYCGEGLSCRIQKDHHQASNSSRLHTCQRH
notes: also called Myc-DKK1; DKK1-Myc
binding result [6]: binds

B6: human recombinant DKK1 protein (ligand, UniProt O94907 32-266, looked up)
chain: TLNSVLNSNAIKNLPPPLGGAAGHPGSAVSAAPGILYPGGNKYQTIDNYQPYPCAEDEECGTDEYCASPTRGGDAGVQICLACRKRRKRCMRHAMCCPGNYCKNGICVSSDQNHFRGEIEETITESFGNDHSTLDGYSRRTTLSSKMYHTKGQEGSVCLRSSDCASGLCCARHFWSKICKPVLKEGQVCTKHRRKGSHGLEIFQRCYCGEGLSCRIQKDHHQASNSSRLHTCQRH
modifications: 125I-labelled (IODO-GEN method)
notes: Bought
binding result [7]: binds

Results, then the binder that gave them:

fold reduction of 125I-DKK1 binding [1]: > 2 fold
Kd [4]: ~3.3 nM
fold reduction of 125I-Mesd binding [2]: ~10 fold
B2: recombinant mouse Mesd protein (wild type) (other, not shown: small tags and cut ends)
chain: ADTPGEATPPPRKKKDIRDYNDADMARLLEQWEKDDDIEEGDLPEHKRPSAPIDFSKLDPGKPESILKMTKKGKTLMMFVTVSGNPTEKETEEITSLWQGSLFNANYDVQRFIVGSDRAIFMLRDGSYAWEIKDFLVSQDRCAEVTLEGQMYPGKGGGSKEKNKTKPEKAKKKEGDRKPRASKEDNRAGSRREDL
modifications: 125I-labelled (IODO-GEN method) where used as tracer
notes: Expressed in E. coli BL21(DE3) from pET-30a(+); 'All the recombinant Mesd proteins lack the Mesd signal peptide'; also called Mesd polypeptide

binding result [5]: no binding
B4: Mesd (12-155) (other)
chain: RKKKDIRDYNDADMARLLEQWEKDDDIEEGDLPEHKRPSAPIDFSKLDPGKPESILKMTKKGKTLMMFVTVSGNPTEKETEEITSLWQGSLFNANYDVQRFIVGSDRAIFMLRDGSYAWEIKDFLVSQDRCAEVTLEGQMYPGK
notes: also called truncated Mesd mutant lacking both the N-terminal and C-terminal regions; not shown: N-terminal polyhistidine tail from pET-30a(+)
